# Laboratory results published in patent US20080027001A1, “NOGO RECEPTOR FUNCTIONAL MOTIFS, PEPTIDE MIMETICS, AND MUTATED FUNCTIONAL MOTIFS RELATED THERETO, AND METHODS OF USING THE SAME” (priority 2006, published 2008).
# T1: MAG-AP (Homo sapiens, UniProt P20916)
# T1 construct: human MAG; NM_002361; amino acids 1-516; made in house; NgR1 transiently transfected into COS-7 cells
# T1 sequence (P20916 20-516): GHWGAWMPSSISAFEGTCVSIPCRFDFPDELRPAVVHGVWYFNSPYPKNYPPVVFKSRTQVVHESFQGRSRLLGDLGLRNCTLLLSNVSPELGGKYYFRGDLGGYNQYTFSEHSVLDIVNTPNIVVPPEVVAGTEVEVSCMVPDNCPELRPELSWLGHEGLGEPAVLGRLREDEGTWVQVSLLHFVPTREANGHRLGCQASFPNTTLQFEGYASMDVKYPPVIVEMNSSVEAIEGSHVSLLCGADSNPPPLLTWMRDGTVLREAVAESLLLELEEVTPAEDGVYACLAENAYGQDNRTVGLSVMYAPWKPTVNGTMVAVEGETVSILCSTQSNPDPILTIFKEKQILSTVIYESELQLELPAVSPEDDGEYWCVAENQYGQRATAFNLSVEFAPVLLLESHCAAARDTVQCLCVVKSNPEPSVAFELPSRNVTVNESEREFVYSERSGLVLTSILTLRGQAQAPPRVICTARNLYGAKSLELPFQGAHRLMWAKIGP
# Target: T1, MAG-AP
# Test: Cell-surface NgR binding assay, MAG-AP
# Conditions: mutant NgR1 in COS-7 cells; MAG-AP 10 μg/ml (FIG. 7B)
# Experimental: COS-7 cells were cotransfected with either wild type or mutant NgR1 constructs along with a CMV-beta-galactosidase plasmid (pCMVb, BD Biosciences, San Jose, Calif.) as a transfection control. Transfection was performed in 6-well plates using Lipofectamine 2000 (Invitrogen, Carlsbad, Calif.) following the manufacturer's protocol. The next day, cells were trypsinized and seeded at 30,000 cells per well in duplicate polylysine-coated 96-well plates (BD Biosciences); one plate was used in the binding assay, and the other was used to correct for transfection efficiency by measuring beta-galactosidase activity (described below). The remaining cells were separately plated and assayed for surface expression of the NgR1 proteins by immunocytochemistry (Example 1.9) and for total NgR1 protein levels by Western blot analysis (Example 1.8). […] Binding of AP-tagged ligands was measured using the Great EscAPe SEAP Kit (BD Biosciences) following the manufacturer's recommended protocol. […] Sixty microliters of diluted CSPD® substrate (Applied Biosystems, Foster City, Calif.) was then added per well, incubated for 10 minutes at room temperature, and then read on an LMAXII luminometer (Molecular Devices). […] Beta-galactosidase activity was measured using the luminescent beta-gal detection kit II (BD Biosciences) following the manufacturer's recommended protocol. […]
# Separate statistical analysis was performed for MAG-AP and Nogo-66-AP binding; a linear mixed model was fitted to the data using the receptors as the fixed effects and the experiments, replicates within each experiment, and receptor×experiment interactions as the random effects. […] Pairwise comparisons were performed between receptors in the framework of the linear mixed model, and raw p-values and Tukey-Kramer multiplicity-adjusted p-values were calculated. The corresponding 95% confidence intervals were also calculated.
# (SEQ ID NO:51). […] Nogo-66-AP(C47V) concentration was determined by measuring alkaline phosphatase activity and by Western blot analysis for alkaline phosphatase. […]
row,reduction in binding of soluble MAG (MAG-AP) relative to wild type NgR1,Molecule
1,57%,EM7: human NgR1 point mutant K277D/R279D (protein) CPGACVCYNEPKVTTSCPQQGLQAVPVGIPAASQRIFLHGNRISHVPAASFRACRNLTILWLHSNVLARIDAAAFTGLALLEQLDLSDNAQLRSVDPATFHGLGRLHTLHLDRCGLQELGPGLFRGLAALQYLYLQDNALQALPDDTFRDLGNLTHLFLHGNRISSVPERAFRGLHSLDRLLLHQNRVAHVHPHAFRDLGRLMTLYLFANNLSALPTEALAPLRALQYLRLNDNPWVCDCRARPLWAWLQDFDGSSSEVPCSLPQRLAGRDLKRLAANDLQGCAVATGPYHPIWTGRATDEEPLGLPKCCQPDAADKASVLEPGRPASAGNALKGRVPPGDSPPGNGSGPRHINDSPFGTLPGSAEPPLTAVRPEGSEPPGFPTSGPRRRPGCSRKNRTRSHCRLGQAGSGGGGTGDSEGS
2,58%,"EM8: human NgR1 point mutant K277A, R279A (protein) CPGACVCYNEPKVTTSCPQQGLQAVPVGIPAASQRIFLHGNRISHVPAASFRACRNLTILWLHSNVLARIDAAAFTGLALLEQLDLSDNAQLRSVDPATFHGLGRLHTLHLDRCGLQELGPGLFRGLAALQYLYLQDNALQALPDDTFRDLGNLTHLFLHGNRISSVPERAFRGLHSLDRLLLHQNRVAHVHPHAFRDLGRLMTLYLFANNLSALPTEALAPLRALQYLRLNDNPWVCDCRARPLWAWLQAFAGSSSEVPCSLPQRLAGRDLKRLAANDLQGCAVATGPYHPIWTGRATDEEPLGLPKCCQPDAADKASVLEPGRPASAGNALKGRVPPGDSPPGNGSGPRHINDSPFGTLPGSAEPPLTAVRPEGSEPPGFPTSGPRRRPGCSRKNRTRSHCRLGQAGSGGGGTGDSEGS"
3,36%,EM11: human NgR1 point mutant R279A (protein) CPGACVCYNEPKVTTSCPQQGLQAVPVGIPAASQRIFLHGNRISHVPAASFRACRNLTILWLHSNVLARIDAAAFTGLALLEQLDLSDNAQLRSVDPATFHGLGRLHTLHLDRCGLQELGPGLFRGLAALQYLYLQDNALQALPDDTFRDLGNLTHLFLHGNRISSVPERAFRGLHSLDRLLLHQNRVAHVHPHAFRDLGRLMTLYLFANNLSALPTEALAPLRALQYLRLNDNPWVCDCRARPLWAWLQKFAGSSSEVPCSLPQRLAGRDLKRLAANDLQGCAVATGPYHPIWTGRATDEEPLGLPKCCQPDAADKASVLEPGRPASAGNALKGRVPPGDSPPGNGSGPRHINDSPFGTLPGSAEPPLTAVRPEGSEPPGFPTSGPRRRPGCSRKNRTRSHCRLGQAGSGGGGTGDSEGS
